Measurements taken from the supplement of paper PMC10724198.
± gives the standard deviation of the averaged measurements.

System: Saccharomyces cerevisiae
Experiment: protein stability index of tFT-peptide fusion (C-terminal peptide) (PSI (0-1 scale)); higher = more stable (slower turnover)
Settings: genetic background: wild type; temperature: 30 C
Protocol: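 Multiplexed protein stability (MPS) profiling in S. cerevisiae. Random 12-aa peptides (tFT-X12 library) are fused to the C-terminus of a sfGFP-mCherry tandem fluorescent timer, after mCherry and a GGGS linker. Cells are FACS-sorted into 8 mCherry/sfGFP bins and deep-sequenced. The protein stability index (PSI) is the read-weighted bin average, scaled from 0 (unstable) to 1 (stable). Only peptides with >10 reads are reported; cells were grown at 30 °C in SC-His with glucose.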
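Note: PSI is a weighted mean of sequencing reads over stability bins, variants kept only with over 10 reads, mCherry proximal and sfGFP distal, peptide attached via GGGS linker.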

Sequence | protein stability index
GLSSAVSPSFGR | 0.598 ± 0.017
GLSSFIGRRGRR | 0.713 ± 0.013
GLSSRQHPAPTT | 0.693 ± 0.05
GLSWSSGGLMVF | 0.615 ± 0.037
GLSYPPLQFYYH | 0.689 ± 0.012
GLVGCDPPPPAF | 0.72 ± 0.04
GLVGSGFVCIGM | 0.697 ± 0.15
GLVRGGWGTVGG | 0.805 ± 0.24
GLVVGGLRPKRV | 0.68 ± 0.004
GLWEVVEITRRE | 0.684 ± 0.049
GMDGWGWGGSVV | 0.706 ± 0.026
GMGWGTVGDING | 0.709 ± 0.024
GMIRDKEVVGGG | 0.651 ± 0.11
GMQPRGVRRATS | 0.728 ± 0.023
GMRGGKGKPAET | 0.728 ± 0.0096
GMSSWNSISFPI | 0.751 ± 0.073
GNNPDHAYTSNI | 0.682 ± 0.07
GNRARRSGITRF | 0.809 ± 0.15
GNTNIYIVMRES | 0.5935 ± 0.0031
GNTPERVQRRWE | 0.632 ± 0.086
GPCFKSQPKSPI | 0.6807 ± 0.0024
GPCRICNERSLI | 0.613 ± 0.0062
GPCSLVSLFAGD | 0.697 ± 0.017
GPEGSDMIDPWK | 0.666 ± 0.13
GPEVRPTLTHNE | 0.623 ± 0.018

Sequence | protein stability index
GPGPRAASADCP | 0.728 ± 0.08
GPLPPLHPSPTI | 0.725 ± 0.016
GPPDLSSSRVLL | 0.718 ± 0.11
GPPPPPPLPQLW | 0.77 ± 0.037
GPPRTRRRSARG | 0.668 ± 0.0068
GPPSVSPPFSPS | 0.7829 ± 0.0016
GPRAGFRRPELE | 0.733 ± 0.043
GPRVILALLSRR | 0.6842 ± 0.0067
GPSHPPHLPPPV | 0.6855 ± 0.001
GPSIRWWGGGRR | 0.731 ± 0.049
GPSPFHPPPPER | 0.554 ± 0.0094
GPSVGWFPSGWS | 0.74212 ± 0.00021
GPVTSFAPVAVS | 0.617 ± 0.038
GPVVGGWSVVSK | 0.655 ± 0.058
GPYDLVSAPCLG | 0.753 ± 0.057
GQAPRARKTSTD | 0.678 ± 0.014
GQAWVEITARDS | 0.748 ± 0.075
GQGRGERRRVRP | 0.653 ± 0.075
GQGSSRKSTSVK | 0.7114 ± 0.0041
GQHSCTRVDTQQ | 0.734 ± 0.011
GQLMRPSFSVSC | 0.658 ± 0.009
GQSRQKNEKKIK | 0.687 ± 0.0091
GQSSVGCYNYRR | 0.676 ± 0.036
GRAGLDLACWWK | 0.709 ± 0.03
GRARWVGGEGVW | 0.706 ± 0.025

Sequence | protein stability index
GRCGRFVGAAWG | 0.741 ± 0.17
GRCLRITMACYI | 0.646 ± 0.035
GREGAADGWACG | 0.652 ± 0.055
GREREKGGKRIE | 0.629 ± 0.047
GRFRQTVTGEGW | 0.669 ± 0.087
GRGAGQAGKKKI | 0.631 ± 0.0073
GRGCLGSILVFL | 0.633 ± 0.047
GRGEKKREVDGG | 0.69 ± 0.065
GRGGGGGAVGEW | 0.683 ± 0.037
GRGGWPPWFKHK | 0.712 ± 0.033
GRGLGGWARGWW | 0.69008 ± 0.00035
GRGPRTTKAGRG | 0.7 ± 0.03
GRGRVAAGFVAR | 0.737 ± 0.039
GRGTLLGLGLYA | 0.692 ± 0.078
GRGVGACLVVVV | 0.523 ± 0.022
GRGVGCVRRVGG | 0.676 ± 0.059
GRGWGGALGWCG | 0.668 ± 0.013
GRIFAGCGGGGV | 0.705 ± 0.06
GRKKRGRKGEEK | 0.631 ± 0.035
GRKPGGGRRAPE | 0.666 ± 0.028
GRLFCAALPLPL | 0.666 ± 0.089
GRLGSSRIVGKS | 0.692 ± 0.017
GRLQRKQRKYKA | 0.719 ± 0.0083
GRPGISESGIIG | 0.7103 ± 0.0071
GRPTRRHRGRLV | 0.709 ± 0.028

Sequence | protein stability index
GRQEISVGGRRM | 0.7007 ± 0.00071
GRRDGRWGQIVR | 0.679 ± 0.0097
GRRRVGAVVEGV | 0.641 ± 0.01
GRRVQRGQARGA | 0.66 ± 0.024
GRRWVGAVVEGV | 0.684 ± 0.043
GRSASDTRGLGL | 0.672 ± 0.13
GRSDAPVPFDPP | 0.561 ± 0.0098
GRSGWAWFTCRC | 0.67 ± 0.059
GRTGETGRIGRG | 0.6512 ± 0.0023
GRTWCFVGARPS | 0.698 ± 0.17
GRVRETRCISYG | 0.652 ± 0.11
GRVRIFDCVVRL | 0.753 ± 0.011
GRVRLGMKETLS | 0.713 ± 0.016
GRVSAVEFWFCF | 0.615 ± 0.04
GRWGGWGGRGCG | 0.696 ± 0.023
GRYRNDVAVLNF | 0.683 ± 0.087
GSAHSFTLLVLP | 0.742 ± 0.043
GSDMRADGRIER | 0.673 ± 0.039
GSEPCPRPCGPG | 0.692 ± 0.048
GSFLGTSFKSEY | 0.666 ± 0.029
GSFMECIREGIF | 0.718 ± 0.058
GSGAICAFGFWC | 0.6599 ± 0.0041
GSGDFWRLCISL | 0.785 ± 0.1
